Results taken from publication PMC9369017.

Target: SARS-CoV-2 spike protein on Ramos-S cells (SARS-CoV-2) (UniProt P0DTC2)
Assay: flow cytometry on cells

Substance | median fluorescence intensity
flACE2-Fc-H429F (from UniProt Q9BYF1 19-740) (Fc fusion) | 16900
EflACE2-Fc-H429F (from UniProt Q9BYF1 19-740) (Fc fusion) | 20500
EflACE2-Fc-E430G (from UniProt Q9BYF1 19-740) (Fc fusion) | 21000
trACE2-Fc-H429F (from UniProt Q9BYF1 19-615) (Fc fusion) | 16300
EflACE2-Fc-H429Y (from UniProt Q9BYF1 19-740) (Fc fusion) | 15100
trACE2-Fc-E430G (from UniProt Q9BYF1 19-615) (Fc fusion) | 16700
flACE2-Fc-E430G (from UniProt Q9BYF1 19-740) (Fc fusion) | 17300
trACE2-Fc-H429Y (from UniProt Q9BYF1 19-615) (Fc fusion) | 11600
flACE2-Fc-H429Y (from UniProt Q9BYF1 19-740) (Fc fusion) | 12500
